± gives the uncertainty stated by the source.
B1: Intersectin-1, residues 909 to 971; numbered along this chain, Q15811 (parent)
chain: QGEKVEGLQAQALYPWRAKKDNHLNFNKNDVITVLEQQDMWWFGEVQGQKGWFPKSYVKLISG

Variants of: B1
Assay: abundance fitness (aPCA) (normalised: wild type 0, dead -1); higher = more abundant; growth selection in yeast, the domain comes from the species named
Conditions: Homo sapiens

Point of comparison: QGEKVEGLQAQALYPWRAKKDNHLNFNKNDVITVLEQQDMWWFGEVQGQKGWFPKSYVWLISG [K59W], abundance fitness -0.747 ± 0.24. Against it:
- QGEKVEGLQAQALYPWRAKKDNHLNFNKNDVICVLEQQDMWWFGEVQGQKGWFPKSYVKLISG [T33C] — higher, -0.159 ± 0.11
- QGEKVEGLQAQALYPWRAKKDNHLNFNKDDVITVLEQQDMWWFGEVQGQKGWFPKSYVKLISG [N29D] — higher, -0.081 ± 0.13
- QGEKVEGLQAQALYPWRAKKDNHLNFNKNDVITVLEQQDMWWFGEVQGQKGWFPKSYVKLIGG [S62G] — higher, -0.129 ± 0.12
- QGEKVEGLQAQALYPWRAKKDNHLNFKKNDVITVLEQQDMWWFGEVQGQKGWFPKSYVKLISG [N27K] — higher, -0.191 ± 0.17
- QGEKVEGLQAQALYPWRAKKDNHLNFNKNDVDTVLEQQDMWWFGEVQGQKGWFPKSYVKLISG [I32D] — within error, -0.568 ± 0.19
- QGEKVEGLQAQALYPWRAKKHNHLNFNKNDVITVLEQQDMWWFGEVQGQKGWFPKSYVKLISG [D21H] — higher, 0.01 ± 0.079
- QGEKVEGLQAQALYPWRAKKDNILNFNKNDVITVLEQQDMWWFGEVQGQKGWFPKSYVKLISG [H23I] — within error, -0.551 ± 0.35
- QGEKVEGLQAQALYPWRAKKDNHLNFNKNDVITVLEQQLMWWFGEVQGQKGWFPKSYVKLISG [D39L] — within error, -0.385 ± 0.17
- QGEKVEGLQAQALYPWRAKKDNHLNFEKNDVITVLEQQDMWWFGEVQGQKGWFPKSYVKLISG [N27E] — higher, 0.054 ± 0.45
- QGEKVEGLQAQALYPWRAKKDNHLNFNKNDVITVLEQQDMWWFGEVQGQKGWFPKCYVKLISG [S56C] — higher, -0.204 ± 0.28
- QGEKVYGLQAQALYPWRAKKDNHLNFNKNDVITVLEQQDMWWFGEVQGQKGWFPKSYVKLISG [E6Y] — higher, -0.119 ± 0.24
- QGEKEEGLQAQALYPWRAKKDNHLNFNKNDVITVLEQQDMWWFGEVQGQKGWFPKSYVKLISG [V5E] — higher, -0.126 ± 0.17
- QGEKVEGLQAQALYPWRAKKDNHLNFNKNDVITVLEQQDMWWFGGVQGQKGWFPKSYVKLISG [E45G] — higher, -0.263 ± 0.11
- QGEKVEGLQAQALYPWRSKKDNHLNFNKNDVITVLEQQDMWWFGEVQGQKGWFPKSYVKLISG [A18S] — higher, -0.058 ± 0.047
- QGEKVEGLMAQALYPWRAKKDNHLNFNKNDVITVLEQQDMWWFGEVQGQKGWFPKSYVKLISG [Q9M] — higher, 0.095 ± 0.17
- QGEKVEGLQAQALYPWRAKKDNHLNFNKNDIITVLEQQDMWWFGEVQGQKGWFPKSYVKLISG [V31I] — higher, 0.011 ± 0.035
- QGEKVEGLQAQALYPWRAKKDNHLNFNKNDVITVLEQQDMWMFGEVQGQKGWFPKSYVKLISG [W42M] — higher, -0.192 ± 0.13
- QGEKVEGLQAYALYPWRAKKDNHLNFNKNDVITVLEQQDMWWFGEVQGQKGWFPKSYVKLISG [Q11Y] — higher, -0.09 ± 0.26
- QGEKVEGLQAQALYPWRAKKDNHLNFNKNDVITVLEQQDMWWFGEVQGQKGWFPKSIVKLISG [Y57I] — within error, -0.289 ± 0.28
- QGEKVEGLQAQALYPWRAKKDNHLNFNKLDVITVLEQQDMWWFGEVQGQKGWFPKSYVKLISG [N29L] — higher, -0.269 ± 0.075
- QGEKVEGLQAQALYPWRAKKDNHLNFNKNDVITVLEQQDMWWNGEVQGQKGWFPKSYVKLISG [F43N] — within error, -0.427 ± 0.25
- QGEKVEGLQAQALYPWRAKKMNHLNFNKNDVITVLEQQDMWWFGEVQGQKGWFPKSYVKLISG [D21M] — within error, -0.434 ± 0.2
- QGEKVEGRQAQALYPWRAKKDNHLNFNKNDVITVLEQQDMWWFGEVQGQKGWFPKSYVKLISG [L8R] — higher, -0.087 ± 0.072
- QGEHVEGLQAQALYPWRAKKDNHLNFNKNDVITVLEQQDMWWFGEVQGQKGWFPKSYVKLISG [K4H] — higher, -0.168 ± 0.3
- QGESVEGLQAQALYPWRAKKDNHLNFNKNDVITVLEQQDMWWFGEVQGQKGWFPKSYVKLISG [K4S] — higher, -0.014 ± 0.098
- QGEKVEGLQAQALYPWRAKKDNHLNFNKNDVITVLEQQDMWCFGEVQGQKGWFPKSYVKLISG [W42C] — higher, -0.055 ± 0.12
- QGEKVEGLQAQALYPWRAKKDNHLNFNKNDVITVLEQQDMWWFGNVQGQKGWFPKSYVKLISG [E45N] — within error, -0.356 ± 0.3
- QGEKVEGLQAQALYPWRAKKDNHLNFSKNDVITVLEQQDMWWFGEVQGQKGWFPKSYVKLISG [N27S] — within error, -0.408 ± 0.43
- QGEKVEGLQAQALYPWRAKKDNHLNFNKNRVITVLEQQDMWWFGEVQGQKGWFPKSYVKLISG [D30R] — within error, -0.778 ± 0.049
- QGEKVEGLQAQALYPWRAKKDNHLNFNKNDVITVLEQQDMWWFGTVQGQKGWFPKSYVKLISG [E45T] — higher, 0.073 ± 0.15
- QGEKVEGLNAQALYPWRAKKDNHLNFNKNDVITVLEQQDMWWFGEVQGQKGWFPKSYVKLISG [Q9N] — higher, 0.012 ± 0.28
- QGLKVEGLQAQALYPWRAKKDNHLNFNKNDVITVLEQQDMWWFGEVQGQKGWFPKSYVKLISG [E3L] — higher, -0.268 ± 0.22
- QGEKVEGLQAQALYPWRAKKDNHLNFNKNDVITVLEQQDYWWFGEVQGQKGWFPKSYVKLISG [M40Y] — within error, -0.344 ± 0.26
- QGEKVEGLQAQALYPWRAKKDNHLNFNKNDVITVLEQQDMWWFGEVQGQKGWFPKIYVKLISG [S56I] — within error, -0.491 ± 0.26
- QGEKVEGLQAQALYPWRAKKDNHLNFNKNDVRTVLEQQDMWWFGEVQGQKGWFPKSYVKLISG [I32R] — within error, -0.766 ± 0.075
- QGEKVEGLQAQALYPWRRKKDNHLNFNKNDVITVLEQQDMWWFGEVQGQKGWFPKSYVKLISG [A18R] — higher, -0.267 ± 0.072
- QGEKVEGLQAQALYPWRAKKDNHLNFNKNDVITVLEQQDMWWFGEVQGQKGTFPKSYVKLISG [W52T] — within error, -0.89 ± 0.28
- QGEKVFGLQAQALYPWRAKKDNHLNFNKNDVITVLEQQDMWWFGEVQGQKGWFPKSYVKLISG [E6F] — higher, -0.178 ± 0.24
- QGEKVLGLQAQALYPWRAKKDNHLNFNKNDVITVLEQQDMWWFGEVQGQKGWFPKSYVKLISG [E6L] — higher, -0.1 ± 0.12
- QGEKVPGLQAQALYPWRAKKDNHLNFNKNDVITVLEQQDMWWFGEVQGQKGWFPKSYVKLISG [E6P] — higher, 0.074 ± 0.12
- QGEKVEGLQAQALYPWRAKKDNHLNFNKNDVITVLEQQDMWWFGEVQGQKGWFPKSSVKLISG [Y57S] — higher, -0.308 ± 0.14
- QGEKVEGLQAQALYPWRAKKDNHLNFNKNDVITVLEQQDMMWFGEVQGQKGWFPKSYVKLISG [W41M] — higher, -0.071 ± 0.085

Source: the Human Domainome abundance scans (Beltran et al. 2025)
